Experimental data taken from paper PMC2631628.

What was measured:
[1] = molecular target: hnRNP A1 (UniProt P09651); test: competition; details: Footprinting: RNA refolded in 2 mM MgCl2, 80 mM NaCl, 20 mM Tris-HCl pH 7.2; probing at 37 C for 10 min; EMSA and pull-down buffers not in the material
[2] = molecular target: hnRNP A1 (UniProt P09651); test: footprinting (Pb(II)); details: Footprinting: RNA refolded in 2 mM MgCl2, 80 mM NaCl, 20 mM Tris-HCl pH 7.2; probing at 37 C for 10 min; EMSA and pull-down buffers not in the material

hnRNP A1, sequence (P09651 whole entry): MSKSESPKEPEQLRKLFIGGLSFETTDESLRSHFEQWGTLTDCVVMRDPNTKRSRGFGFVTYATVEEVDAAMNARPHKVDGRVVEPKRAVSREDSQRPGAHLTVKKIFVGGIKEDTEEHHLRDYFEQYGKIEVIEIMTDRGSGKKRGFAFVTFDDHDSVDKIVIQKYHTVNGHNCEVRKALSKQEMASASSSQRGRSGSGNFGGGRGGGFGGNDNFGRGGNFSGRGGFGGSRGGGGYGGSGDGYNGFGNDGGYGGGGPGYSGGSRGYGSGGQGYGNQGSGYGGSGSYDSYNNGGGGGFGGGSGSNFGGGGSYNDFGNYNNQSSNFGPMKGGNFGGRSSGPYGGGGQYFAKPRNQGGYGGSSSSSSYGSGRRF

Question: For “GGCGUGCAGGGCCUGCUGAUGUUGAGUGCUUUUUGUUCUAAGGUGCAUCUAGUGCAGAUAGUGAAGUAGAUUAGCAUCUACUGCCCUAAGUGCUCCUUCUGGCAUAAGAAGUUAUGUAUUCAUCCAAUAAUUC [pri-miR-18a]”, which binding [1] is on record?
Answer: binds

Question: For “GGUGUUCUAAGGUGCAUCUAGUGCAGAUAGUGAAGUAGAUUAGCAUCUACUGCCCUAAGUGCUCCUUCUGGCA [pri-miR-18a_73nt]”, which binding [2] is on record?
Answer: binds
